The values below come from patent publication US20240352087A1.

For orientation: IC50 means the concentration needed to halve the response being measured. Low values mean inhibition by little substance, high ones a need for much substance.

What all share (experiment): HLA-binding assay
Assay [1] deals with B*35:01.
The target of assay [2] is A*29:02.
The target of assay [3] is B*40:01.
The target in assay [4] is B*27:05.

In assay [1], E5 55-63 showed an IC50 of 1.4 nM.
E5 65-73 yielded an IC50 in assay [2] of 444 nM.
E6 52-61 displayed an IC50 in assay [1] of 51 nM.
In assay [3], E6 81-90 returned an IC50 of 0.54 nM.
In assay [4], E6 83-90 registered an IC50 of 12 nM.
Still for that read-out and setting: with E6 137-144 the figure was 13 nM.
